From PMC9520036, “The heme-regulated inhibitor kinase requires dimerization for heme-sensing activity” (The Journal of Biological Chemistry, 2022)

B1: HRI-ΔN-ΔpCC (Δ1-143, Δ620-630), untreated (phosphorylated as purified) (domain or fragment, human, UniProt Q9BQI3 144-619, looked up)
chain: SRIQKIRSREVALEAQTSRYLNEFEELAILGKGGYGRVYKVRNKLDGQYYAIKKILIKGATKTVCMKVLREVKVLAGLQHPNIVGYHTAWIEHVHVIQPRADRAAIELPSLEVLSDQEEDREQCGVKNDESSSSSIIFAEPTPEKEKRFGESDTENQNNKSVKYTTNLVIRESGELESTLELQENGLAGLSASSIVEQQLPLRRNSHLEESFTSTEESSEENVNFLGQTEAQYHLMLHIQMQLCELSLWDWIVERNKRGREYVDESACPYVMANVATKIFQELVEGVFYIHNMGIVHRDLKPRNIFLHGPDQQVKIGDFGLACTDILQKNTDWTNRNGKRTPTHTSRVGTCLYASPEQLEGSEYDAKSDMYSLGVVLLELFQPFGTEMERAEVLTGLRTGQLPESLRKRCPVQAKYIQHLTRRNSSQRPSAIQLLQSELFQNSGNVNLTLQMKIIEQEKEIAELKKQLNLLSQDKG
modifications: autophosphorylated as purified from E. coli (sites not given)
notes: The limits 144-619 follow from the printed deletions Δ1-143 and Δ620-630; also called His-HRI-ΔN-ΔpCC; untreated HRI-ΔN-ΔpCC
B2: HRI-ΔN-ΔpCC (Δ1-143, Δ620-630), dephosphorylated with lambda phosphatase (domain or fragment, human, UniProt Q9BQI3 144-619, looked up)
chain: B1 chain
notes: Human HRI, UniProt Q9BQI3, residues 144-619 (Δ1-143, Δ620-630); phosphate groups removed with lambda phosphatase; The limits 144-619 follow from the printed deletions Δ1-143 and Δ620-630; also called dephosphorylated HRI-ΔN-ΔpCC; source: E. coli BL21-Rosetta(DE3), purified, incubated with lambda phosphatase, then Superdex 200

Tests used:
[1] = target: T1, heme-regulated inhibitor (HRI) (Homo sapiens, UniProt Q9BQI3); assay: γ[…] ATP filter-paper kinase assay with eIF2α peptide; supported by DSF (~[…] °C shift) and DSC stabilization; assay type: biochemical
T1 construct: gene EIF2AK1; HRI-FL (full-length)
T1 sequence (Q9BQI3 whole entry): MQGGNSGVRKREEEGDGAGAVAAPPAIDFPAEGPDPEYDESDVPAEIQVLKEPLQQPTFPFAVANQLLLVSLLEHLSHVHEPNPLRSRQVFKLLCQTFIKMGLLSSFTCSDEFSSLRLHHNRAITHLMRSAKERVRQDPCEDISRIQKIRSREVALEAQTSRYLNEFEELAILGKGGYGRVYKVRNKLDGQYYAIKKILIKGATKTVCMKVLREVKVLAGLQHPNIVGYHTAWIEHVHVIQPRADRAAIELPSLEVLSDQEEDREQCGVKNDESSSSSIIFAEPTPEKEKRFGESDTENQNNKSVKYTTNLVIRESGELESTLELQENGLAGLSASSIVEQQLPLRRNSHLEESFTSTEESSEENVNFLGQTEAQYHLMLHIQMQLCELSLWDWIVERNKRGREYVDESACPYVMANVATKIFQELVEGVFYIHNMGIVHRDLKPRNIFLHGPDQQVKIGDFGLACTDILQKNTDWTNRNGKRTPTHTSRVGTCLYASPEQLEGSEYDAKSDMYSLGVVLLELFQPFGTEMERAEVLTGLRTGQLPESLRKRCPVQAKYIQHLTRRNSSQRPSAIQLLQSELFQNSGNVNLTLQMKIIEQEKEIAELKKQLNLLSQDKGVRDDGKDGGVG

[2] = target: the molecule itself; assay: AUC; sedimentation velocity; samples at an absorbance of 0.5 at 280 nm, 20 °C, 42,000 rpm, c(s) distribution model in SEDFIT; self-association (oligomeric state from fit MW)

Row | Molecule | IC50 [1] [nM] | stoichiometry N [2]
1 | O=c1c(O)c(-c2ccc(O)c(O)c2)oc2cc(O)cc(O)c12 [quercetin] | 1520 | 
2 | B1 |  | 2
3 | B2 |  | 2
